Columns and labels:
[1] = biological target: T1, anti-CD28 Fab (SEQ ID NOs: 202, 203); experiment: phage ELISA on captured Fab;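 note: ELISA with clonal phage supernatants added to wells preincubated with CD28 antigen or with blocking buffer only, bound phage detected by HRP-conjugated anti-M13 antibody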
T1 construct: biotinylated and captured on neutravidin coated plates in the phage ELISA
Protocol: (§1) Clonal phage were harvested as crude supernatants and screened via standard ELISAs. […] Prior to the addition of clonal phage, wells were incubated with blocking buffer and CD28 antigen or blocking buffer alone. Without washing or aspirating, clonal phage supernatants were then added to the wells and incubated for a short time. Wells were then washed followed by detection of bound phage using a horse radish conjugated anti-M13 antibody.

[2] = biological target: T1, anti-CD28 Fab (SEQ ID NOs: 202, 203); experiment: phage ELISA on captured Fab, wells pre-incubated with CD28 antigen (competitor);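 note: clonal phage ELISA with wells pretreated with CD28 plus blocking buffer before phage addition, bound phage detected by HRP-linked anti-M13 antibody, reference wells got blocking buffer only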
Protocol: as §1

T1 sequence (VH, as listed by the source, chain 1 of 2): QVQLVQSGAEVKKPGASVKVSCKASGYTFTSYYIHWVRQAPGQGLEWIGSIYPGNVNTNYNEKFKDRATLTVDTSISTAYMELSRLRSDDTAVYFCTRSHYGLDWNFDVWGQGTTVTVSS
T1 sequence (VL, as listed by the source, chain 2 of 2): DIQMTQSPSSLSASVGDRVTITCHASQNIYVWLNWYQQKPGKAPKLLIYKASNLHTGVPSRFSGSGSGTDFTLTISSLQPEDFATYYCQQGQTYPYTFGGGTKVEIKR

Binder | Anti-CD28 Fab (SEQ ID NOs: 202, 203) signal [1] | Anti-CD28 Fab signal in the presence of CD28 [2]
YCEGHLAVYMEKCL (on phage, pIII fusion) [Phage-473] | 1.65 | 0.12
YCDGHGPQYIQKCL (on phage, pIII fusion) [Phage-479] | 1.64 | 0.07
YCDGHSPQYIQKCL (on phage, pIII fusion) [Phage-566] | 1.5 | 0.07
YCAGHAPEYMSKCL (on phage, pIII fusion) [Phage-489] | 1.63 | 0.05
YCAGHAAEYMTKCL (on phage, pIII fusion) [Phage-475] | 1.65 | 0.07
YCEGHDLIYMWKCL (on phage, pIII fusion) [Phage-488] | 1.63 | 0.06
YCEGHSSEYMWKCL (on phage, pIII fusion) [Phage-490] | 1.63 | 0.09
YCDGHATEYMQKCL (on phage, pIII fusion) [Phage-484] | 1.64 | 0.1
YCDGHSLLYLSKCL (on phage, pIII fusion) [Phage-472] | 1.65 | 0.07
YCAGHSLEYMQKCL (on phage, pIII fusion) [Phage-487] | 1.63 | 0.07
YCEGHSAQYMHKCL (on phage, pIII fusion) [Phage-481] | 1.64 | 0.06
YCEGHSLMYMWKCL (on phage, pIII fusion) [Phage-474] | 1.65 | 0.08
YCEGHSLMYMAKCL (on phage, pIII fusion) [Phage-563] | 1.5 | 0.06
YCDGHAQEYRLKCL (on phage, pIII fusion) [Phage-477] | 1.65 | 0.07
YCEGHTAEHMQKCL (on phage, pIII fusion) [Phage-482] | 1.64 | 0.05
YCDGHRVEYMAKCL (on phage, pIII fusion) [Phage-522] | 1.58 | 0.09
YCDGHSAEYLLKCL (on phage, pIII fusion) [Phage-478] | 1.65 | 0.07
YCDGHSAEYLSKCL (on phage, pIII fusion) [Phage-561] | 1.51 | 0.07
YCAGHVAEYMAKCL (on phage, pIII fusion) [Phage-483] | 1.64 | 0.06
YCEGHMWEYMAKCL (on phage, pIII fusion) [Phage-485] | 1.64 | 0.13
YCEGHIAEYMQKCL (on phage, pIII fusion) [Phage-480] | 1.64 | 0.13
